Consider 26 molecules from patent US20250034212A1, “PEPTIDE” (PEPTIDREAM INC., priority 2021, published 2025).

One assay has as its target T1, recombinant human TGF-β1 (Homo sapiens, UniProt P01137).
T1 construct: purchased R&D systems
Briefly: ELISA of HA-tagged peptides with TGF-β1 beads. Format: binding. Conditions: for Activity of binding to TGF-β: relative value with binding of peptide TGFb1_061 (SEQ ID NO: 62) to TGF-β1 set to 100%, HA-tagged peptides, TGF-β1 beads ELISA. From the text:
In this Example, ELISA was used to evaluate the binding between TGF-β1 and each of various peptides consisting of the amino acid sequences set forth in SEQ ID NOs: 34-69 synthesized in Examples 6 and 7. An HA-tag was attached to the G end of the C-terminal linker of the peptide consisting of the amino acid sequence set forth in SEQ ID NOs: 34-69. As used herein, the “HA-tag” means the amino acid sequence of PEG10[…] (SEQ ID NO: 70).
The binding activity of each peptide to TGF-β1 was examined by ELISA using the peptide consisting of the amino acid sequence set forth in SEQ ID NOs: 34-69 having an HA-tag attached and TGF-β1 beads.
Recombinant human TGF-β1 (R&D Systems) was immobilized on Dynabead M-270 Carboxylic Acid (Thermo fisher scientific) to prepare TGF-β1 beads. The immobilization reaction was performed using the Amine Coupling kit (DOJINDO LABORATORIES).
TGF-β1 beads and each peptide having the HA-tag sequence attached at the C-terminus were reacted in PBS (PBS-T) containing 0.1% Tween 20 (NACALAI TESQUE, INC.) for 1 hour and then washed by PBS-T. To detect the peptide bound to the TGF-β1 beads, an anti-HA-tag mAb-HRP-DirecT (MBL) and the TGF-β1 beads were reacted in PBS-T containing 1% BSA for 30 min. After washing with PBST, a SureBlue TMB Microwell Peroxidase Substrate (Kirkegaard & Perry Laboratories) was added for coloration for 10 min. TMB stop solution (Kirkegaard & Perry Laboratories) was then added to stop the coloration reaction. An EnSpire (Perkin Elmer) was used to measure absorbance.
Note that the binding activity was expressed as a relative value when the ability of binding the peptide TGFb1_061 (SEQ ID NO: 62) to TGF-β1 was set to 100%.
In general terms: In an ELISA, binding on a coated surface is turned into a signal by an enzyme label.

For assay [1], the target named is T2, recombinant human TGF-β1 (R&D systems) (human, UniProt P01137 279-390). The experiment in a line: cell-based or functional assay.
T2 sequence (P01137 279-390 limits assumed): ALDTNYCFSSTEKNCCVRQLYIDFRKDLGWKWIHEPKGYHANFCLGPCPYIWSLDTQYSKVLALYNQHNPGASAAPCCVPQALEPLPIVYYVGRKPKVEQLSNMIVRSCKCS
The target of assay [2] is T2, recombinant human TGF-β1 (R&D systems). Briefly: cell-based or functional assay. This is another data set of the same source.

Read-outs that look alike come from different tables or passages of the source. Starred links: 1 amine or outer side, 2 acyl side, 3 side chain; linkers in the order of their positions; H or OH if unused. Positions of bridges follow the written chain, without caps; N, C: chain ends. Non-standard residues stand in square brackets, D forms with d. No end group written: not given here. *: point of attachment. HA‑tag = HA-tag attached to the G end of the C-terminal linker, CC(C)[C@H](NC(=O)[C@H](CC(=O)O)NC(=O)[C@H](Cc1ccc(O)cc1)NC(=O)[C@@H]1CCCN1C(=O)[C@H](Cc1ccc(O)cc1)N*)C(=O)N1CCC[C@H]1C(=O)N[C@@H](CC(=O)O)C(=O)N[C@@H](Cc1ccc(O)cc1)C(=O)N[C@@H](C)C(=O)O; KCOmeglumine = N6-(methyl-((2S,3R,4R,5R)-2,3,4,5,6-pentahydroxyhexyl)carbamoyl)-L-lysine, CN(C[C@H](O)[C@@H](O)[C@H](O)[C@H](O)CO)C(=O)NCCCC[C@H](N[*:1])C(=O)[*:2]; KCOpipzaa = N6-(4-(carboxymethyl)piperazine-1-carbonyl)-L-lysine, O=C(NCCCC[C@H](N[*:1])C(=O)[*:2])N1CCN(CC(=O)[*:3])CC1; Phe(3-guanidino) = 3-[(aminoiminomethyl)amino]-L-phenylalanine, N=C(N)Nc1cccc(C[C@H](N[*:1])C(=O)[*:2])c1; CH3O(CH2CH2O)7C2H4CO = COCCOCCOCCOCCOCCOCCOCCOCCC(=O)*; Phe(4-guanidino) = N=C(N)Nc1ccc(C[C@H](N)C(=O)O)cc1; Trp(6-aza) = N[C@@H](Cc1c[nH]c2cnccc12)C(=O)O; Trp(7-aza) = N[C@@H](Cc1c[nH]c2ncccc12)C(=O)O; 1Nal = N[C@@H](Cc1cccc2ccccc12)C(=O)O; Gly(NCH2CH2Ph) = O=C(O)CNCCc1ccccc1; 3Pal = N[C@@H](Cc1cccnc1)C(=O)O; 4Pal = N[C@@H](Cc1ccncc1)C(=O)O

T1 sequence (P01137 279-390 limits assumed): as the sequence (P01137 279-390 limits assumed) above

Consider “48 ({CH2CO}-F[1Nal]VVNVEDD[Gly(NCH2CH2Ph)]V[1Nal]YHVCG; thioether N-16; also: HA-tag) [compound 48]”, for which, in the assay with recombinant human TGF-β1, the “Activity of binding to TGF-β” value is 80%. On the same count and under the same terms, the value for “49 ({CH2CO}-F[1Nal]VVNVYDD[Gly(NCH2CH2Ph)]V[1Nal][4Pal]HVCG; thioether N-16; also: HA-tag) [compound 49]” was 80%; that for “50 ({CH2CO}-F[1Nal]VVNVYDD[Gly(NCH2CH2Ph)]V[1Nal]YHQCG; thioether N-16; also: HA-tag) [compound 50]” was 81%; that for “51 ({CH2CO}-F[1Nal]VKNVYDD[Gly(NCH2CH2Ph)]V[1Nal]YHVCG; thioether N-16; also: HA-tag) [compound 51]” was 84%. The same measure, in the same setting: the value for “52 ({CH2CO}-F[Trp(6-aza)]VVNVYDD[Gly(NCH2CH2Ph)]V[1Nal]YHVCG; thioether N-16; also: HA-tag) [compound 52]” was 85%. The same measure, in the same setting: the value for “53 ({CH2CO}-F[1Nal]VVNVYDDKV[1Nal]YHVCG; thioether N-16; also: HA-tag) [compound 53]” was 86%; that for “54 ({CH2CO}-F[1Nal]VVNV[Phe(4-guanidino)]DD[Gly(NCH2CH2Ph)]V[1Nal]YHVCG; thioether N-16; also: HA-tag) [compound 54]” was 87%; that for “55 ({CH2CO}-F[1Nal]VVNVYDD[Gly(NCH2CH2Ph)]V[1Nal]YHECG; thioether N-16; also: HA-tag) [compound 55]” was 89%.

As for “56 ({CH2CO}-FWVVNVYDD[Gly(NCH2CH2Ph)]V[1Nal]YHVCG; thioether N-16; also: HA-tag) [compound 56]”, the “Activity of binding to TGF-β” value in the assay with recombinant human TGF-β1 was 90%. For the molecule “57 ({CH2CO}-F[1Nal]VVNVQDD[Gly(NCH2CH2Ph)]V[1Nal]YHVCG; thioether N-16; also: HA-tag) [compound 57]”, in the assay with recombinant human TGF-β1, the “Activity of binding to TGF-β” value was 90%. Same read-out and setting: the value for “58 ({CH2CO}-F[1Nal]VVNVYED[Gly(NCH2CH2Ph)]V[1Nal]YHVCG; thioether N-16; also: HA-tag) [compound 58]” was 93%. Same read-out and setting: the value for “59 ({CH2CO}-F[1Nal]VVNVYDD[Gly(NCH2CH2Ph)]V[1Nal][3Pal]HVCG; thioether N-16; also: HA-tag) [compound 59]” was 95%; that for “60 ({CH2CO}-F[1Nal]VVNVYDQ[Gly(NCH2CH2Ph)]V[1Nal]YHVCG; thioether N-16; also: HA-tag) [compound 60]” was 95%; that for “61 ({CH2CO}-F[1Nal]VVNVYKD[Gly(NCH2CH2Ph)]V[1Nal]YHVCG; thioether N-16; also: HA-tag) [compound 61]” was 98%. On to “62 ({CH2CO}-F[1Nal]VVNVYDD[Gly(NCH2CH2Ph)]V[1Nal]YHVCG; thioether N-16; also: HA-tag) [compound 62]”, for which the “Activity of binding to TGF-β” value with recombinant human TGF-β1 turned out to be 100%. On the same count and under the same terms, the value for “63 ({CH2CO}-F[1Nal]VVNVKDD[Gly(NCH2CH2Ph)]V[1Nal]YHVCG; thioether N-16; also: HA-tag) [compound 63]” was 102%; that for “64 ({CH2CO}-F[1Nal]VVNVYDK[Gly(NCH2CH2Ph)]V[1Nal]YHVCG; thioether N-16; also: HA-tag) [compound 64]” was 102%; that for “65 ({CH2CO}-F[1Nal]VVNV[Phe(3-guanidino)]DD[Gly(NCH2CH2Ph)]V[1Nal]YHVCG; thioether N-16; also: HA-tag) [compound 65]” was 104%. On the same count and under the same terms, the figure for “66 ({CH2CO}-F[Trp(7-aza)]VVNVYDD[Gly(NCH2CH2Ph)]V[1Nal]YHVCG; thioether N-16; also: HA-tag) [compound 66]” is 106%; for “67 ({CH2CO}-F[1Nal]VVNVYDE[Gly(NCH2CH2Ph)]V[1Nal]YHVCG; thioether N-16; also: HA-tag) [compound 67]” it is 116%. Same read-out and setting: the value for “68 ({CH2CO}-F[1Nal]VVNV[4Pal]DD[Gly(NCH2CH2Ph)]V[1Nal]YHVCG; thioether N-16; also: HA-tag) [compound 68]” was 119%; that for “69 ({CH2CO}-F[1Nal]VVNV[3Pal]DD[Gly(NCH2CH2Ph)]V[1Nal]YHVCG; thioether N-16; also: HA-tag) [compound 69]” was 140%. In the case of “TGFb1_061: cyclic peptide of Table 4 with G linker and HA-tag; ELISA reference set to 100% ({CH2CO}-F[1Nal]VVNVYDD[Gly(NCH2CH2Ph)]V[1Nal]YHVCG-{HA‑tag}; thioether N-16)”, the “activity of binding to TGF-β, relative value” with recombinant human TGF-β1 (ELISA, relative to TGFb1_061 (SEQ ID NO: 62) set to 100%, HA-tag attached) is on record as 100%.

B1: TGFb1_031 (peptide)
peptide: {CH2CO}-F[1Nal]VVNV[4Pal]DD[Gly(NCH2CH2Ph)]V[1Nal]YH[KCOpipzaa]CGK(CH3O(CH2CH2O)7C2H4CO)-NH2
modifications: thioether N-16
SMILES: COCCOCCOCCOCCOCCOCCOCCOCCC(=O)NCCCC[C@H](NC(=O)CNC(=O)[C@@H]1CSCC(=O)N[C@@H](Cc2ccccc2)C(=O)N[C@@H](Cc2cccc3ccccc23)C(=O)N[C@@H](C(C)C)C(=O)N[C@@H](C(C)C)C(=O)N[C@@H](CC(N)=O)C(=O)N[C@@H](C(C)C)C(=O)N[C@@H](Cc2ccncc2)C(=O)N[C@@H](CC(=O)O)C(=O)N[C@@H](CC(=O)O)C(=O)N(CCc2ccccc2)CC(=O)N[C@@H](C(C)C)C(=O)N[C@@H](Cc2cccc3ccccc23)C(=O)N[C@@H](Cc2ccc(O)cc2)C(=O)N[C@@H](Cc2c[nH]cn2)C(=O)N[C@@H](CCCCNC(=O)N2CCN(CC(=O)O)CC2)C(=O)N1)C(N)=O
notes: cyclic peptide; linker G K(MePEG8c) at the C-terminus
On to B1, for which, in assay [1], the “SBE reporter % inhibition, peptide 0.062 nM” value stood at 9.29%; the “SBE reporter % inhibition, peptide 0.185 nM” value stood at 20.1%; the “SBE reporter % inhibition, peptide 0.56 nM” value came out at 51.9%; the “SBE reporter % inhibition, peptide 1.7 nM” value came to 84.9%. Besides, in assay [1], the “SBE reporter % inhibition, peptide 5.0 nM” value came out at 96.7% and the “SBE reporter % inhibition, peptide 15.0 nM” value is 99.1%.

B2: TGFb1_022 (peptide)
peptide: {CH2CO}-F[1Nal]VVNV[4Pal]D[KCOpipzaa][Gly(NCH2CH2Ph)]V[1Nal]YH[KCOpipzaa]CG-NH2
modifications: thioether N-16
SMILES: CC(C)[C@@H]1NC(=O)CN(CCc2ccccc2)C(=O)[C@H](CCCCNC(=O)N2CCN(CC(=O)O)CC2)NC(=O)[C@H](CC(=O)O)NC(=O)[C@H](Cc2ccncc2)NC(=O)[C@H](C(C)C)NC(=O)[C@H](CC(N)=O)NC(=O)[C@H](C(C)C)NC(=O)[C@H](C(C)C)NC(=O)[C@H](Cc2cccc3ccccc23)NC(=O)[C@H](Cc2ccccc2)NC(=O)CSC[C@@H](C(=O)NCC(N)=O)NC(=O)[C@H](CCCCNC(=O)N2CCN(CC(=O)O)CC2)NC(=O)[C@H](Cc2c[nH]cn2)NC(=O)[C@H](Cc2ccc(O)cc2)NC(=O)[C@H](Cc2cccc3ccccc23)NC1=O
Consider B2, for which, in assay [2], the SBE reporter % inhibition, peptide 0.062 nM amounted to 6.49%; the SBE reporter % inhibition, peptide 0.185 nM was determined as 20.8%; the SBE reporter % inhibition, peptide 0.56 nM was 53.8%; the SBE reporter % inhibition, peptide 1.7 nM stood at 85.2%. In addition, in assay [2], the SBE reporter % inhibition, peptide 5.0 nM amounted to 97.1% and the SBE reporter % inhibition, peptide 15.0 nM came out at 99.5%.

B3: TGFb1_020 (peptide)
peptide: {CH2CO}-F[1Nal]V[KCOmeglumine]NV[4Pal]DD[Gly(NCH2CH2Ph)]V[1Nal]YH[KCOpipzaa]CG-NH2
modifications: thioether N-16
SMILES: CC(C)[C@@H]1NC(=O)CN(CCc2ccccc2)C(=O)[C@H](CC(=O)O)NC(=O)[C@H](CC(=O)O)NC(=O)[C@H](Cc2ccncc2)NC(=O)[C@H](C(C)C)NC(=O)[C@H](CC(N)=O)NC(=O)[C@H](CCCCNC(=O)N(C)C[C@H](O)[C@@H](O)[C@H](O)[C@H](O)CO)NC(=O)[C@H](C(C)C)NC(=O)[C@H](Cc2cccc3ccccc23)NC(=O)[C@H](Cc2ccccc2)NC(=O)CSC[C@@H](C(=O)NCC(N)=O)NC(=O)[C@H](CCCCNC(=O)N2CCN(CC(=O)O)CC2)NC(=O)[C@H](Cc2c[nH]cn2)NC(=O)[C@H](Cc2ccc(O)cc2)NC(=O)[C@H](Cc2cccc3ccccc23)NC1=O
As for B3, in assay [2], the SBE reporter % inhibition, peptide 0.062 nM was 8.5%; the SBE reporter % inhibition, peptide 0.185 nM came out at 15.8%; the SBE reporter % inhibition, peptide 0.56 nM is 36.3%; the SBE reporter % inhibition, peptide 1.7 nM was 70.4%. For the same molecule, in assay [2], the SBE reporter % inhibition, peptide 5.0 nM was 89.3% and the SBE reporter % inhibition, peptide 15.0 nM is 96.9%.
